Experimental findings from paper PMC7949081 are described below.

For the assay, the target named is Zn2+. Kind of assay: Zincon assay. The following applies: purified Vif complex denatured and deproteinated; metal ions measured in supernatant; parent: est. 1.3; read off a plot.

For the substance “maedi–visna virus (MVV) Vif, WT, residues 1-230, N-terminal 6xHis tagged (from UniProt P69715) C135S”, the other: Zn2+:Protein Ratio came to 0.09. In the case of “maedi–visna virus (MVV) Vif, WT, residues 1-230, N-terminal 6xHis tagged (from UniProt P69715) C137S” it was 0.07; in that of “maedi–visna virus (MVV) Vif, WT, residues 1-230, N-terminal 6xHis tagged (from UniProt P69715) C157S”, 0.2.

In the case of “maedi–visna virus (MVV) Vif, WT, residues 1-230, N-terminal 6xHis tagged (from UniProt P69715) C160S”, the other: Zn2+:Protein Ratio was 0.17. The value for “maedi–visna virus (MVV) Vif, WT, residues 1-230, N-terminal 6xHis tagged (from UniProt P69715) C207S” was 0.93. In the case of “maedi–visna virus (MVV) Vif, WT, residues 1-230, N-terminal 6xHis tagged (from UniProt P69715) C222S” it was 0.77; in that of “maedi–visna virus (MVV) Vif, WT, residues 1-230, N-terminal 6xHis tagged (from UniProt P69715) H7N”, 1.2; in that of “maedi–visna virus (MVV) Vif, WT, residues 1-230, N-terminal 6xHis tagged (from UniProt P69715) H129N”, 0.92. The value for “maedi–visna virus (MVV) Vif, WT, residues 1-230, N-terminal 6xHis tagged (from UniProt P69715) H152N” was 0.97. Turning to “maedi–visna virus (MVV) Vif, WT, residues 1-230, N-terminal 6xHis tagged (from UniProt P69715) H181N”, the other: Zn2+:Protein Ratio amounted to 1.2.

“maedi–visna virus (MVV) Vif, WT, residues 1-230, N-terminal 6xHis tagged (from UniProt P69715) H186N”: the other: Zn2+:Protein Ratio stood at 1.1.
